Source: patent US20150166606A1 (RA PHARMACEUTICALS, published 2015)
Where two headings read alike, the source gives them in different places. Numbered stars: 1 amine (or outer) side, 2 acyl side, 3 side chain; on linkers, the order of the positions; unused ones are H or OH. Bridge positions count the residues as written; N and C are the ends. Square brackets hold non-standard residues; d marks the D form. Ends that are not written are not given here. * marks the point of attachment. mXylyl = xylyl linker from dibromoxylene joining the two cysteines; Trp(7-aza) = N[C@@H](Cc1c[nH]c2ncccc12)C(=O)O; des‑NH2 = missing amino-terminal amine group; Gly(octyl) = CCCCCCCC[C@H](N)C(=O)O; Gly(cPent) = N[C@H](C(=O)O)C1CCCC1; pXylylene = c1cc(C[*:2])ccc1C[*:1]; Gly(cPr) = N[C@H](C(=O)O)C1CC1; dPhg = N[C@@H](C(=O)O)c1ccccc1; Chg = N[C@H](C(=O)O)C1CCCCC1; Phg = N[C@H](C(=O)O)c1ccccc1; Tle = CC(C)(C)[C@H](N)C(=O)O; Tranexamic = tranexamic acid; NMeV = CN[C@H](C(=O)O)C(C)C; oXylyl = ortho-xylyl linker; NMeC = CN[C@@H](CS)C(=O)O; NMeS = CN[C@@H](CO)C(=O)O; azaTrp = not defined here; Heptanoyl = CCCCCCC(=O)*; Ac5c = NC1(C(=O)O)CCCC1; Nva = CCC[C@H](N)C(=O)O; Thp = NC1(C(=O)O)CCOCC1; Ac4c = NC1(C(=O)O)CCC1; Ac3c = NC1(C(=O)O)CC1; Aib = CC(C)(N)C(=O)O; AEA = NCCOCC(=O)O; Mpa = O=C(O)CCS

Key:
[1] = target: T1, Activated human plasma kallikrein (Enzyme Research Laboratories, HPKa 1303) (human, UniProt P03952 20-638); assay: cell-based or functional assay
T1 sequence (P03952 20-638 limits assumed): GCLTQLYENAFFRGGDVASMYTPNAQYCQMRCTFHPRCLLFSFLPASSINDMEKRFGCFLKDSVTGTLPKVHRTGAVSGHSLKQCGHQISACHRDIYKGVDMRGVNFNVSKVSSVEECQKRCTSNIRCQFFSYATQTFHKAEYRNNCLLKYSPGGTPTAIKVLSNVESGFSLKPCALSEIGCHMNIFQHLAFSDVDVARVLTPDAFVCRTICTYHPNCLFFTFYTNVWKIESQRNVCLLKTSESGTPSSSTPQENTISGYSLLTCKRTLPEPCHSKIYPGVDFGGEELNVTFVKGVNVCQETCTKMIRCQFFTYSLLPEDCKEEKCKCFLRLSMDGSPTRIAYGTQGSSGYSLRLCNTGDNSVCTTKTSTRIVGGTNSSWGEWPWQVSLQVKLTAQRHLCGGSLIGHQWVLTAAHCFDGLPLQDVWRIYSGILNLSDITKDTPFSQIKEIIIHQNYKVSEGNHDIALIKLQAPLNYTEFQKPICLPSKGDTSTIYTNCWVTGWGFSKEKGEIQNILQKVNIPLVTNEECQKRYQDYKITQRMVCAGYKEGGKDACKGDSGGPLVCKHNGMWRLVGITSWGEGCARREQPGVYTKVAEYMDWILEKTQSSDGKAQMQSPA

[2] = target: T1, Activated human plasma kallikrein …; assay: cell-based or functional assay; remark: listed apart in the source

**Q.** {des‑NH2}-C[Thp]A[Chg]C[Trp(7-aza)][Tle]-NH2 (linker 1-5 via mXylyl) [R2147] was tested. Which “Avg. IC50” value [1] did it give?
**A.** > 2190 nM

**Q.** How did the “Avg. IC50” value [1] turn out when Heptanoyl-C[dA][NMeS][Chg]CR[Tle]-NH2 (linker 1-5 via mXylyl) [R2148] was run?
**A.** 28.8 nM

**Q.** With {des‑NH2}-C[Ac5c]A[dPhg]CR[Tle]-NH2 (linker 1-5 via mXylyl) [R2149] as the binder, how does the “Avg. IC50” value [1] read?
**A.** 177 nM

**Q.** For {des‑NH2}-C[Ac5c]A[Phg]CR[Tle]-NH2 (linker 1-5 via mXylyl) [R2150], which “Avg. IC50” value [1] is on record?
**A.** 0.764 nM

**Q.** How did the “Avg. IC50” value [1] turn out when {des‑NH2}-C[AEA][Phg]CR[Tle]-NH2 (linker 1-4 via mXylyl) [R2151] was run?
**A.** 1940 nM

**Q.** How did the “Avg. IC50” value [1] turn out when {des‑NH2}-C[Aib]A[Chg]CR-{3,3‑dimethylbutan‑2‑amine} (linker 1-5 via mXylyl) [R2152] was run?
**A.** 319 nM

**Q.** With {des‑NH2}-C[Aib]A[Chg]CR-OH (linker 1-5 via mXylyl) [R2153] as the binder, how does the “Avg. IC50” value [1] read?
**A.** > 8880 nM

**Q.** Which “Avg. IC50” value [1] does the source give for XSICRV (not fully specified; [mXylyl(1,4)](2-SAc)-SICRV-NH2) [R2154] here?
**A.** > 7930 nM

B1: R2068 (peptide)
peptide: Heptanoyl-CA[NMeS][Phg]CR[Tle]-NH2
modifications: linker 1-5 via mXylyl; not fully specified (residue 2); printed as [mXylyl(1,5)]Heptanoyl-C-a-nMeS-Phg-C-R-Tbg-NH2
**Q.** With B1 as the binder, how does the “Avg. IC50” value [2] read?
**A.** 26.8 nM

B2: R2069 (peptide)
peptide: Heptanoyl-CA[NMeS][dPhg]CR[Tle]-NH2
modifications: linker 1-5 via mXylyl; not fully specified (residue 2); printed as [mXylyl(1,5)]Heptanoyl-C-a-nMeS-(D)Phg-C-R-Tbg-NH2
**Q.** With B2 as the binder, how does the “Avg. IC50” value [2] read?
**A.** 903 nM

B3: R2070 (peptide)
peptide: Ac-CAS[Phg]CR[Gly(cPr)]-NH2
modifications: linker 1-5 via mXylyl; not fully specified (residue 2); printed as [mXylyl(1,5)]Ac-C-a-S-Phg-CR-Cppg-NH2
**Q.** With B3 as the binder, how does the “Avg. IC50” value [2] read?
**A.** 118 nM

B4: R2071 (peptide)
peptide: Ac-CAS[Phg]CR[Chg]-NH2
modifications: linker 1-5 via mXylyl; not fully specified (residue 2); printed as [mXylyl(1,5)]Ac-C-a-S-Phg-CR-Chg-NH2
**Q.** With B4 as the binder, how does the “Avg. IC50” value [2] read?
**A.** 1920 nM

**Q.** With Ac-MCESICRV-NH2 (linker 2-6 via mXylyl) [R2008] as the binder, how does the “Avg. IC50” value [2] read?
**A.** 10.2 nM

B5: R2072 (peptide)
peptide: {des‑NH2}-CAAICRV-NH2
modifications: linker 1-5 via mXylyl; not fully specified (residue 1); printed as [mXylyl(1,5)](des-NH2)C-AAICRV-NH2
**Q.** How did the “Avg. IC50” value [2] turn out when B5 was run?
**A.** 13 nM

B6: R2073 (peptide)
peptide: {des‑NH2}-C[Gly(octyl)]S[Phg]CR[Tle]-NH2
modifications: linker 1-5 via mXylyl; not fully specified (residue 1); printed as [mXylyl(1,5)](des-NH2)C-OctG-S-Phg-CR-Tbg-NH2
**Q.** With B6 as the binder, how does the “Avg. IC50” value [2] read?
**A.** 18.6 nM

**Q.** With MCESICR[NMeV]-NH2 (linker 2-6 via mXylyl) [R2074] as the binder, how does the “Avg. IC50” value [2] read?
**A.** 11600 nM

B7: R2075 (peptide)
peptide: {des‑NH2}-CAA[Phg]CR[Tle]-NH2
modifications: linker 1-5 via mXylyl; not fully specified (residue 1); printed as [mXylyl(1,5)](des-NH2)C-AA-Phg-CR-Tbg-NH2
**Q.** B7 was tested. Which “Avg. IC50” value [2] did it give?
**A.** 2.6 nM

B8: R2076 (peptide)
peptide: {des‑NH2}-CGA[Phg]CR[Tle]-NH2
modifications: linker 1-5 via mXylyl; not fully specified (residue 1); printed as [mXylyl(1,5)](des-NH2)C-GA-Phg-CR-Tbg-NH2
**Q.** B8 was tested. Which “Avg. IC50” value [2] did it give?
**A.** 11.4 nM

**Q.** Which “Avg. IC50” value [2] does the source give for MCES[Gly(cPent)]CRV-NH2 (linker 2-6 via mXylyl) [R2077] here?
**A.** 19.7 nM

**Q.** For {des‑NH2}-C[Aib]A[Phg]CR[Tle]-NH2 (linker 1-5 via mXylyl) [R2078], which “Avg. IC50” value [2] is on record?
**A.** 2.8 nM

**Q.** With [Mpa][code a]A[Phg]CR[Tle]-NH2 (linker 1-5 via mXylyl) [R2079] as the binder, how does the “Avg. IC50” value [2] read?
**A.** 17.8 nM

B9: R2080 (peptide)
peptide: [Mpa][code a]S[Phg]C[azaTrp][Tle]-NH2
modifications: linker 1-5 via mXylyl; reading uncertain; also: printed as [mXylyl(1,5)](des-NH2)C-a-S-Phg-C-azaTrp-Tbg-NH2
**Q.** For B9, which “Avg. IC50” value [2] is on record?
**A.** 13200 nM

B10: R2081 (peptide)
peptide: {des‑NH2}-C[Tranexamic][dPhg]CR[Tle]-NH2
modifications: linker 1-4 via mXylyl (inferred); not fully specified; printed as [mXylyl(1,5)](des-NH2)C-Tranexamic-(D)Phg-CR-Tbg-NH2
**Q.** Which “Avg. IC50” value [2] does the source give for B10 here?
**A.** > 10000 nM

**Q.** Which “Avg. IC50” value [2] does the source give for [Nva]CESICRV-NH2 (linker 2-6 via mXylyl) [R2009] here?
**A.** 8.6 nM

**Q.** Which “Avg. IC50” value [2] does the source give for [Mpa][code a]S[Chg]CR[Tle]-NH2 (linker 1-5 via mXylyl) [R2082] here?
**A.** 25.8 nM

B11: R2083 (peptide)
peptide: {des‑NH2}-C[Phg]CR[Tle]-NH2
modifications: linker 1-3 via oXylyl; not fully specified (residue 1); printed as [oXylyl(1,5)](des-NH2)C-Phg-CR-Tbg-NH2
**Q.** Which “Avg. IC50” value [2] does the source give for B11 here?
**A.** > 8900 nM

B12: R2084 (peptide)
peptide: {des‑NH2}-C[Phg]CR[Tle]-NH2
modifications: linker 1-3 via pXylylene; not fully specified (residue 1); printed as [pXylyl(1,5)](des-NH2)C-Phg-CR-Tbg-NH2
**Q.** For B12, which “Avg. IC50” value [2] is on record?
**A.** 1800 nM

**Q.** CESICRV-NH2 (linker 1-5 via mXylyl) [R2085] was tested. Which “Avg. IC50” value [2] did it give?
**A.** 21.9 nM

**Q.** With MCESICRELRYSE-NH2 (linker 2-6 via mXylyl) [R2086] as the binder, how does the “Avg. IC50” value [2] read?
**A.** 8930 nM

**Q.** Which “Avg. IC50” value [2] does the source give for MCESICRE-NH2 (linker 2-6 via mXylyl) [R2087] here?
**A.** > 16600 nM

**Q.** How did the “Avg. IC50” value [2] turn out when MCESNCRV-NH2 (linker 2-6 via mXylyl) [R2088] was run?
**A.** 2040 nM

**Q.** Which “Avg. IC50” value [2] does the source give for MCEYICRV-NH2 (linker 2-6 via mXylyl) [R2089] here?
**A.** 61.9 nM

B13: R2090 (peptide)
peptide: {des‑NH2}-C[Tranexamic][Phg]CR[Tle]-NH2
modifications: linker 1-4 via mXylyl (inferred); not fully specified; printed as [mXylyl(1,5)](des-NH2)C-Tranexamic-Phg-CR-Tbg-NH2
**Q.** For B13, which “Avg. IC50” value [2] is on record?
**A.** 1750 nM

**Q.** With {des‑NH2}-C[Aib]A[Chg]CR[Tle]-NH2 (linker 1-5 via mXylyl) [R2091] as the binder, how does the “Avg. IC50” value [2] read?
**A.** 3.2 nM

**Q.** With {des‑NH2}-C[Ac3c]A[dPhg]CR[Tle]-NH2 (linker 1-5 via mXylyl) [R2092] as the binder, how does the “Avg. IC50” value [2] read?
**A.** 3960 nM

**Q.** Which “Avg. IC50” value [2] does the source give for {des‑NH2}-C[Ac3c]A[Phg]CR[Tle]-NH2 (linker 1-5 via mXylyl) [R2093] here?
**A.** 10.3 nM

**Q.** With {des‑NH2}-C[Thp]A[dPhg]CR[Tle]-NH2 (linker 1-5 via mXylyl) [R2094] as the binder, how does the “Avg. IC50” value [2] read?
**A.** 46.9 nM

**Q.** With {des‑NH2}-C[Thp]A[Phg]CR[Tle]-NH2 (linker 1-5 via mXylyl) [R2095] as the binder, how does the “Avg. IC50” value [2] read?
**A.** 1.6 nM

**Q.** Which “Avg. IC50” value [2] does the source give for {des‑NH2}-C[Ac4c]A[dPhg]CR[Tle]-NH2 (linker 1-5 via mXylyl) [R2096] here?
**A.** 748 nM

**Q.** How did the “Avg. IC50” value [2] turn out when {des‑NH2}-C[Ac4c]A[Phg]CR[Tle]-NH2 (linker 1-5 via mXylyl) [R2097] was run?
**A.** 2 nM

**Q.** {des‑NH2}-C[Aib]A[dPhg]CR[Tle]LRYSE-NH2 (linker 1-5 via mXylyl) [R2098] was tested. Which “Avg. IC50” value [2] did it give?
**A.** 22.4 nM

**Q.** {des‑NH2}-C[Aib]A[Phg]CR[Tle]LRYSE-NH2 (linker 1-5 via mXylyl) [R2099] was tested. Which “Avg. IC50” value [2] did it give?
**A.** 0.1 nM

**Q.** With {des‑NH2}-C[Thp]A[Chg]CR[Tle]-NH2 (linker 1-5 via mXylyl) [R2100] as the binder, how does the “Avg. IC50” value [2] read?
**A.** 1.5 nM

**Q.** Which “Avg. IC50” value [2] does the source give for MCESI[NMeC]RV-NH2 (linker 2-6 via mXylyl) [R2101] here?
**A.** 12700 nM
